This series addresses MA-MADS5 full length (A) (Musa acuminata (AAA group, Cavendish subgroup, cv. Giant governor)) (UniProt E9NW24). As to the kind of experiment: EMSA saturation. Particulars: EMSA with 2 ug recombinant protein or 15 ug nuclear extract, buffer by reference to earlier work; circularization pre-incubation: 60 mM KCl, 8 mM HEPES pH 7.9 …. For orientation: A gel shift assay detects complexes by their altered migration in electrophoresis.

As a reminder, the Kd is the constant that tells how readily two partners part at equilibrium.

MA-MADS5 full length (A) (Musa acuminata (AAA group, Cavendish subgroup, cv. Giant governor)), sequence (E9NW24 entry or part of it): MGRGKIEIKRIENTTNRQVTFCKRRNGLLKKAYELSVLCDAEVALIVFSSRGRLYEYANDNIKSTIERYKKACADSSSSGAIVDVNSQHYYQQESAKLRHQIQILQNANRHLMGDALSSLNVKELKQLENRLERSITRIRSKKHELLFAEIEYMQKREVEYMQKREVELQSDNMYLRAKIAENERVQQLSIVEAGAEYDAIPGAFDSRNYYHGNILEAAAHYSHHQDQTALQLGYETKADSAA

As for c-fos SRE, pAS76 EcoRV fragment, the Kd was determined as 10.6 nM.

The values above are taken from paper PMC3439491.
